Experimental findings from patent US20200199244A1 (published 2020) are described below.

Substitutions are numbered along the chain they refer to. Numbers in names are those of the source.

B1: DMS0677 DOM7h-11-90-TVA-BMS3h-56-258 (bispecific antibody)
chain: DIQMTQSPSSLSASVGDRVTITCRASRPIGTMLSWYQQKPGKAPKLLILAFSRLQSGVPSRFSGSGSGTDFTLTISNLQPEDFATYYCAQAGTHPTTFGQGTKVEIKRTVAEVQLLESGGGLVQPGGSLRLSCAASGFTFRDYEMWWVRQAPGKGLERVSAINPQGTRTYYADSVKGRFTISRDNSKNTLYLQMNSLRAEDTAVYYCAKLPFYFHEWGQGTLVTVSS
B2: DMS0684 BMS3h-56-258-G4S-DOM7h-11-90 (bispecific antibody)
chain: EVQLLESGGGLVQPGGSLRLSCAASGFTFRDYEMWWVRQAPGKGLERVSAINPQGTRTYYADSVKGRFTISRDNSKNTLYLQMNSLRAEDTAVYYCAKLPFYFHEWGQGTLVTVSSGGGGSDIQMTQSPSSLSASVGDRVTITCRASRPIGTMLSWYQQKPGKAPKLLILAFSRLQSGVPSRFSGSGSGTDFTLTISNLQPEDFATYYCAQAGTHPTTFGQGTKVEIKR
B3: DMS0682 BMS3h-56-258-TVA-DOM7h-11-90 (bispecific antibody)
chain: EVQLLESGGGLVQPGGSLRLSCAASGFTFRDYEMWWVRQAPGKGLERVSAINPQGTRTYYADSVKGRFTISRDNSKNTLYLQMNSLRAEDTAVYYCAKLPFYFHEWGQGTLVTVSSTVADIQMTQSPSSLSASVGDRVTITCRASRPIGTMLSWYQQKPGKAPKLLILAFSRLQSGVPSRFSGSGSGTDFTLTISNLQPEDFATYYCAQAGTHPTTFGQGTKVEIKR
B4: DMS0683 BMS3h-56-258-ASTSGPS-DOM7h-11-90 (bispecific antibody)
chain: EVQLLESGGGLVQPGGSLRLSCAASGFTFRDYEMWWVRQAPGKGLERVSAINPQGTRTYYADSVKGRFTISRDNSKNTLYLQMNSLRAEDTAVYYCAKLPFYFHEWGQGTLVTVSSASTSGPSDIQMTQSPSSLSASVGDRVTITCRASRPIGTMLSWYQQKPGKAPKLLILAFSRLQSGVPSRFSGSGSGTDFTLTISNLQPEDFATYYCAQAGTHPTTFGQGTKVEIKR
B5: DMS0685 BMS3h-56-258-(G4S)3-DOM7h-11-90 (bispecific antibody)
chain: EVQLLESGGGLVQPGGSLRLSCAASGFTFRDYEMWWVRQAPGKGLERVSAINPQGTRTYYADSVKGRFTISRDNSKNTLYLQMNSLRAEDTAVYYCAKLPFYFHEWGQGTLVTVSSGGGGSGGGGSGGGGSDIQMTQSPSSLSASVGDRVTITCRASRPIGTMLSWYQQKPGKAPKLLILAFSRLQSGVPSRFSGSGSGTDFTLTISNLQPEDFATYYCAQAGTHPTTFGQGTKVEIKR
B6: DMS0679 DOM7h-11-90-G4S-BMS3h-56-258 (bispecific antibody)
chain: DIQMTQSPSSLSASVGDRVTITCRASRPIGTMLSWYQQKPGKAPKLLILAFSRLQSGVPSRFSGSGSGTDFTLTISNLQPEDFATYYCAQAGTHPTTFGQGTKVEIKRGGGGSEVQLLESGGGLVQPGGSLRLSCAASGFTFRDYEMWWVRQAPGKGLERVSAINPQGTRTYYADSVKGRFTISRDNSKNTLYLQMNSLRAEDTAVYYCAKLPFYFHEWGQGTLVTVSS
B7: DMS0680 DOM7h-11-90-(G4S)3-BMS3h-56-258 (bispecific antibody)
chain: DIQMTQSPSSLSASVGDRVTITCRASRPIGTMLSWYQQKPGKAPKLLILAFSRLQSGVPSRFSGSGSGTDFTLTISNLQPEDFATYYCAQAGTHPTTFGQGTKVEIKRGGGGSGGGGSGGGGSEVQLLESGGGLVQPGGSLRLSCAASGFTFRDYEMWWVRQAPGKGLERVSAINPQGTRTYYADSVKGRFTISRDNSKNTLYLQMNSLRAEDTAVYYCAKLPFYFHEWGQGTLVTVSS
B8: DMS0681 DOM7h-11-90-(G4S)5-BMS3h-56-258 (bispecific antibody)
chain: DIQMTQSPSSLSASVGDRVTITCRASRPIGTMLSWYQQKPGKAPKLLILAFSRLQSGVPSRFSGSGSGTDFTLTISNLQPEDFATYYCAQAGTHPTTFGQGTKVEIKRGGGGSGGGGSGGGGSGGGGSGGGGSEVQLLESGGGLVQPGGSLRLSCAASGFTFRDYEMWWVRQAPGKGLERVSAINPQGTRTYYADSVKGRFTISRDNSKNTLYLQMNSLRAEDTAVYYCAKLPFYFHEWGQGTLVTVSS
B9: DMS0686 BMS3h-56-258-(G4S)5-DOM7h-11-90 (bispecific antibody)
chain: EVQLLESGGGLVQPGGSLRLSCAASGFTFRDYEMWWVRQAPGKGLERVSAINPQGTRTYYADSVKGRFTISRDNSKNTLYLQMNSLRAEDTAVYYCAKLPFYFHEWGQGTLVTVSSGGGGSGGGGSGGGGSGGGGSGGGGSDIQMTQSPSSLSASVGDRVTITCRASRPIGTMLSWYQQKPGKAPKLLILAFSRLQSGVPSRFSGSGSGTDFTLTISNLQPEDFATYYCAQAGTHPTTFGQGTKVEIKR
B10: BMS3h-312 (other)
VH: EVQLLESGGGLVQPGGSLRLSCAASGFTFDDEKMLWVRQAPGKGLEWVSSISVSGLHTYYADSVKGRFTISRDNSKNTLYLQMNSLRAEDTAVYYCAKEEAGSWSFDYWGQGTLVTVSS
B11: BMS3h-309 (other)
VH: EVQLLESGGGLVQPGGSLRLSCAASGFTFSGHDMSWVRQAPGKGLEWVSAISPHGTHTYYADSVKGRFTISRDNSKNTLYLQMNSLRAEDTAVYYCAKGIRGWIGHDTQPFDYWGQGTLVTVSS
B12: BMS3h-37-2 (other)
VH: EVQLLESGGGLVQPGGSLRLSCAASGFTFEWYEMQWVRRAPGKGLEWVSAISGDGYRTYYADSVKGRFTISRDNSKNTLYLQMNSLRAEDTAVYYCAKELGYFDYWGRGTLVTVSS
notes: dAb, single VH
B13: BMS3h-37-11 (other)
VH: B12 VH with R39K, W106R
notes: dAb, single VH
B14: BMS3h-38-5 (other)
VH: EVQLLGSGGGLVQPGGSLRLSCAASGFTFEEEEMIWVRQAPGKGLEWVSAISGSGGSTYYADSVKGRFTISRDNSKNTLYLQMNSLRAEDTAVYYCGKEPFRFDYWGQGTLVTVSS
notes: dAb, single VH
B15: BMS3h-37-4 (other)
VH: B12 VH with R39K
notes: dAb, single VH
B16: BMS3h-38-8 (other)
VH: B14 VH with G6E, V48I, S71H, G97S, W106R, Q108L
notes: dAb, single VH
B17: BMS3h-202-10 (other)
VH: EVQLLESGGGLVQPGGSLRLSCAASGFTFPTAEMLWVRQAPGKGLEWVSSISASGGSTYYADSVKGRFTISRDNSKNTLYLQMNSLRAEDTAVYYCAKEPVYYVATFDYWGQGTLVTVSS
notes: dAb, single VH
B18: BMS3h-202-11 (other)
VH: B17 VH with Q39K, T91A, Y102S
notes: dAb, single VH

One assay has as its target T1, human CD40 (human, UniProt P25942 21-277). As to the kind of experiment: cell-based or functional assay.
For the molecule B1, the “ICAM-1 Cell Assay EC50 (nM), 10% bovine serum” value worked out at 21.7 nM and the “ICAM-1 Cell Assay EC50 (nM), 10% human serum” value came out at 20.4 nM.

Take B2: the “ICAM-1 Cell Assay EC50 (nM), 10% bovine serum” value came to 37.9 nM and the “ICAM-1 Cell Assay EC50 (nM), 10% human serum” value was 74.3 nM.

As to B3, the “ICAM-1 Cell Assay EC50 (nM), 10% bovine serum” value was 10.2 nM and the “ICAM-1 Cell Assay EC50 (nM), 10% human serum” value was determined as 94.8 nM.

As to B4, the “ICAM-1 Cell Assay EC50 (nM), 10% bovine serum” value stood at 32.4 nM and the “ICAM-1 Cell Assay EC50 (nM), 10% human serum” value is 50.9 nM.

Consider B5, for which the “ICAM-1 Cell Assay EC50 (nM), 10% bovine serum” value is 31.9 nM and the “ICAM-1 Cell Assay EC50 (nM), 10% human serum” value was 62.4 nM.

With B6, the “ICAM-1 Cell Assay EC50 (nM), 10% bovine serum” value is 21.7 nM and the “ICAM-1 Cell Assay EC50 (nM), 10% human serum” value is 39.2 nM.

B7: the “ICAM-1 Cell Assay EC50 (nM), 10% bovine serum” value was 39.3 nM and the “ICAM-1 Cell Assay EC50 (nM), 10% human serum” value came out at 74.2 nM.

Consider B8, for which the “ICAM-1 Cell Assay EC50 (nM), 10% bovine serum” value was 43.6 nM and the “ICAM-1 Cell Assay EC50 (nM), 10% human serum” value is 53.3 nM.

Turning to B9, the “ICAM-1 Cell Assay EC50 (nM), 10% bovine serum” value came out at 48.3 nM and the “ICAM-1 Cell Assay EC50 (nM), 10% human serum” value was 66.6 nM.

Another assay addresses T1, human CD40. As to the kind of experiment: cell-based or functional assay. The source holds these as a separate data set.
B10: the “hIZCD40L-driven Human B Cell Proliferation EC50” value stood at 1100 nM.

Regarding B11, the “hIZCD40L-driven Human B Cell Proliferation EC50” value was 648 nM.

The next assay concerns the target T2, Macaca fascicularis CD40 (Macaca fascicularis (cynomolgus monkey), UniProt P25942 21-277 (human entry)).
T2 chain: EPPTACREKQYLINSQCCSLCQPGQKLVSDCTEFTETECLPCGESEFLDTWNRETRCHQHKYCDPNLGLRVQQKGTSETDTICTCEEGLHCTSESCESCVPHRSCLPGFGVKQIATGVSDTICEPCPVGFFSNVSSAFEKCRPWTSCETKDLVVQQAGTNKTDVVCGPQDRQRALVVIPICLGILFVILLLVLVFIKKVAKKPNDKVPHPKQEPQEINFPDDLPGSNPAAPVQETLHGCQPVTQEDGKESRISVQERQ
As to the kind of experiment: cell-based or functional assay.
B10: the “hIZCD40L-driven Cyno B Cell Proliferation EC50” value is above 7000 nM.

As for B11, the “hIZCD40L-driven Cyno B Cell Proliferation EC50” value turned out to be 838 nM.

In a further assay the target is T3, human CD40 expressed on stably transfected CHO-DG44 cells (human, UniProt P25942 21-277).
T3 construct: also called CHO-CD40
Kind of assay: CHO-CD40 cell RBA, competition with IZ-CD40L.
Protocol: The mixture was incubated in the absence of light for 6 hours.
Take B12: the EC50 came out at 32 nM.

B13 gave an EC50 of 27 nM.

In the case of B14, the EC50 amounted to 1000 nM.

With B15, the half-maximal effective concentration (EC50) turned out to be 45 nM.

B16 had an EC50 of 2800 nM.

B17 came in with an EC50 of 7200 nM.

B18 had an EC50 of 8300 nM.
